Test results from PMC6746701, “A phyB-PIF1-SPA1 kinase regulatory complex promotes photomorphogenesis in Arabidopsis” (Nature Communications, 2019).
Positions count from the first letter of the chain named.

Key:
[1] = target: T1, strep-tagged full-length SPA1 (SUPPRESSOR OF PHYA-105 1) (Arabidopsis, UniProt Q9SYX2 1-1029); assay: pull-down; 2 µg GST-PIF1 on GST agarose beads, 1 µg SPA1 or mSPA1; 50 mM Tris pH 7.5, 150 mM NaCl, 1 mM EDTA, 0.1% Tergitol NP-40, 0.5 mM DTT; 2 h at 4 °C; Coomassie staining; settings: both partners purified
T1 construct: 3x Flag was cloned into the SnaBI site of pPIC3.5K SPA1-strep; also called SPA1-strep; wild type SPA1; source: Pichia pastoris GS115, purified (Strep-Tactin Sepharose); not shown: Strep tag, C-terminal, kept
T1 sequence (looked up): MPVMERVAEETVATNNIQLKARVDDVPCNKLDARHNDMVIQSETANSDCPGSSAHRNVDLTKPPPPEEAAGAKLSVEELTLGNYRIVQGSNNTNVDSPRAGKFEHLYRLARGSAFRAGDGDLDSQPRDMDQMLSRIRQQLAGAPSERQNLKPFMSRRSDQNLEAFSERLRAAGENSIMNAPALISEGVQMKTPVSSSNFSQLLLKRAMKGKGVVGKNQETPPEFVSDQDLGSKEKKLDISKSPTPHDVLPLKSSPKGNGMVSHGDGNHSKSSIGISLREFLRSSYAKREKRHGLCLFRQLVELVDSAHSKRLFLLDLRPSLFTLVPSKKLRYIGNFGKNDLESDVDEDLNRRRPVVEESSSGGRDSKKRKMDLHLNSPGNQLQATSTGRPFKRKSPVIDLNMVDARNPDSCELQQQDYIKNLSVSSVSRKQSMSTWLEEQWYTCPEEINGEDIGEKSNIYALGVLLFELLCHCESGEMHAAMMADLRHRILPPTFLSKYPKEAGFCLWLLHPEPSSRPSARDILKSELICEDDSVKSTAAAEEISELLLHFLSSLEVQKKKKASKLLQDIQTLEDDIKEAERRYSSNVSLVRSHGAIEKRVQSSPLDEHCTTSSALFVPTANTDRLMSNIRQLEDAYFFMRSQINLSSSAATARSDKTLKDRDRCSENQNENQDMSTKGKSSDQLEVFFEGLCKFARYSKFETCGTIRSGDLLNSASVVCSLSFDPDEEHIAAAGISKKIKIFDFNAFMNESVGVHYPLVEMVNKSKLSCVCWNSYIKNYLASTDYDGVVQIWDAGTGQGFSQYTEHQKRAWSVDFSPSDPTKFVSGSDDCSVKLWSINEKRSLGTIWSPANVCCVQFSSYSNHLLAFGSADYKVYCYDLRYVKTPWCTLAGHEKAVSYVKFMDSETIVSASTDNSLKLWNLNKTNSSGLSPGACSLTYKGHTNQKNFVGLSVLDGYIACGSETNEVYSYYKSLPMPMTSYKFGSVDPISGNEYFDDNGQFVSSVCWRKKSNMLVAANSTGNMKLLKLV

[2] = target: T2, strep-tagged full-length mSPA1 (SPA1 R517E) (Arabidopsis, UniProt Q9SYX2 1-1029, R517E); assay: as above; settings: both partners purified
T2 construct: SPA1, Arabidopsis, full length, with the kinase-domain point mutation R517E; Same construct as m1 apart from R517E; also called mSPA1-strep; mutant SPA1; source: Pichia pastoris, purified (Strep-Tactin Sepharose); not shown: Strep tag, C-terminal, kept
T2 sequence (looked up): T1 sequence (looked up) with R517E

B1: GST-PIF1-strep (natural protein, Arabidopsis, UniProt Q8GZM7 1-478, looked up)
chain: MHHFVPDFDTDDDYVNNHNSSLNHLPRKSITTMGEDDDLMELLWQNGQVVVQNQRLHTKKPSSSPPKLLPSMDPQQQPSSDQNLFIQEDEMTSWLHYPLRDDDFCSDLLFSAAPTATATATVSQVTAARPPVSSTNESRPPVRNFMNFSRLRGDFNNGRGGESGPLLSKAVVRESTQVSPSATPSAAASESGLTRRTDGTDSSAVAGGGAYNRKGKAVAMTAPAIEITGTSSSVVSKSEIEPEKTNVDDRKRKEREATTTDETESRSEETKQARVSTTSTKRSRAAEVHNLSERKRRDRINERMKALQELIPRCNKSDKASMLDEAIEYMKSLQLQIQMMSMGCGMMPMMYPGMQQYMPHMAMGMGMNQPIPPPSFMPFPNMLAAQRPLPTQTHMAGSGPQYPVHASDPSRVFVPNQQYDPTSGQPQYPAGYTDPYQQFRGLHPTQPPQFQNQATSYPSSSRVSSSKESEDHGNHTTG
notes: source: E. coli BL21(DE3), purified (Strep-Tactin Sepharose); not shown: GST, N-terminal, kept; Strep tag, C-terminal, kept
- binding result [1]: binds
- binding result [2]: binds
